Molecular target: H3K9Cme3-NCP (fluorescein-labelled DNA, unlabelled wild type H2A) (human) (UniProt P0C0S8)
Experiment: fluorescence polarisation

CHD3 PHD1/2 (373–508), sequence (Q12873 373-508): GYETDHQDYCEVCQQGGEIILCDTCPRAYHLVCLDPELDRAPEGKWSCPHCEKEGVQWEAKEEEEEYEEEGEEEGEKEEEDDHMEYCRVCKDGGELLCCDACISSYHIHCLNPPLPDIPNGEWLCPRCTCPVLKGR

Kd: 1400 nM
Substance: CHD3 PHD1/2 (373–508) (from UniProt Q12873 373-508) (domain or fragment)

— publication PMC5653232
